Test results as given in US20240400703A1.

How the values were obtained:
[1] = molecular target: recombinant human OX40 fused to a His-tag (Acro Biosystems, cat. no. OX0-H5224) (human) (UniProt P43489); assay: BLI cross-block; first Ab (competitor): IgG1-CD134-003
[2] = molecular target: recombinant human OX40 fused to a His-tag (Acro Biosystems, cat. no. OX0-H5224) (human) (UniProt P43489); assay: BLI cross-block; first Ab (competitor): IgG1-CD134-007
[3] = molecular target: recombinant human OX40 fused to a His-tag (Acro Biosystems, cat. no. OX0-H5224) (human) (UniProt P43489); assay: BLI cross-block; first Ab (competitor): IgG1-CD134-012
[4] = molecular target: recombinant human OX40 fused to a His-tag (Acro Biosystems, cat. no. OX0-H5224) (human) (UniProt P43489); assay: BLI cross-block; first Ab (competitor): IgG1-CD134-SF2
[5] = molecular target: recombinant human OX40 fused to a His-tag (Acro Biosystems, cat. no. OX0-H5224) (human) (UniProt P43489); assay: BLI cross-block; first Ab (competitor): IgG1-CD134-11D4
[6] = molecular target: recombinant human OX40 fused to a His-tag (Acro Biosystems, cat. no. OX0-H5224) (human) (UniProt P43489); assay: BLI cross-block; first Ab (competitor): IgG1-CD134-h3C8
[7] = molecular target: recombinant human OX40 fused to a His-tag (Acro Biosystems, cat. no. OX0-H5224) (human) (UniProt P43489); assay: BLI cross-block; first Ab (competitor): IgG1-CD134-A4453
[8] = molecular target: recombinant human OX40 fused to a His-tag (Acro Biosystems, cat. no. OX0-H5224) (human) (UniProt P43489); assay: BLI cross-block; first Ab (competitor): IgG1-CD134-Hu106
[9] = molecular target: recombinant human OX40 fused to a His-tag (Acro Biosystems, cat. no. OX0-H5224) (human) (UniProt P43489); assay: BLI cross-block; first Ab (competitor): IgG1-CD134-GBR830
[10] = molecular target: recombinant human OX40 fused to a His-tag (Acro Biosystems, cat. no. OX0-H5224) (human) (UniProt P43489); assay: BLI cross-block; first Ab (competitor): IgG1-CD134-IBI101
[11] = molecular target: recombinant human OX40 fused to a His-tag (Acro Biosystems, cat. no. OX0-H5224) (human) (UniProt P43489); assay: BLI cross-block; first Ab (competitor): IgG1-CD134-RG7888
[12] = molecular target: recombinant human OX40 fused to a His-tag (Acro Biosystems, cat. no. OX0-H5224) (human) (UniProt P43489); assay: BLI cross-block; first Ab (competitor): IgG1-CD134-ABBV368
[13] = molecular target: recombinant human OX40 fused to a His-tag (Acro Biosystems, cat. no. OX0-H5224) (human) (UniProt P43489); assay: BLI cross-block; first Ab (competitor): IgG1-CD134-49B4-RRE
[14] = molecular target: recombinant human OX40 fused to a His-tag (Acro Biosystems, cat. no. OX0-H5224) (human) (UniProt P43489); assay: BLI cross-block; first Ab (competitor): IgG1-CD134-MEDI0562
[15] = molecular target: recombinant human OX40 fused to a His-tag (Acro Biosystems, cat. no. OX0-H5224) (human) (UniProt P43489); assay: BLI cross-block; first Ab (competitor): IgG1-CD134-INCAGN1949
[16] = molecular target: human OX40 with mouse CRD1 (human with mouse CRD1) (UniProt P43489); assay: flow cytometry, transfected ExpiCHO-S cells, gMFI (PE)
Sequence of human OX40 with mouse CRD1 (human with mouse CRD1) (P43489 other isoform, or with tags, fused parts or gaps limits assumed): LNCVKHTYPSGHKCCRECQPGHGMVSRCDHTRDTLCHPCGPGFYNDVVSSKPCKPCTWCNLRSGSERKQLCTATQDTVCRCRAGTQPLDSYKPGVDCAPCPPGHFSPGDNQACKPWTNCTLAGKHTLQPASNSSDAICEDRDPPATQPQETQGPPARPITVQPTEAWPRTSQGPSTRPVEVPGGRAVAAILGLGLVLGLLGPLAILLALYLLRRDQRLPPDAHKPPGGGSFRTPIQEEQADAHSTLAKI

[17] = molecular target: recombinant human OX40 fused to a His-tag (Acro Biosystems, cat. no. OX0-H5224) (human) (UniProt P43489); assay: BLI cross-block; first Ab (competitor): IgG1-CD134-003-HC6LC2-RR

Sequence of recombinant human OX40 fused to a His-tag (Acro Biosystems, cat. no. OX0-H5224) (human) (P43489 29-214 limits assumed): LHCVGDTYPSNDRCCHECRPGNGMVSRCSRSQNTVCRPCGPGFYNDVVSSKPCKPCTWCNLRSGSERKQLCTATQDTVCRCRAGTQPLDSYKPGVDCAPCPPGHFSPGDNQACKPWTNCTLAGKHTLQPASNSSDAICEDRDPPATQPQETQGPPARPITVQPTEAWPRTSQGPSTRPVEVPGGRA
Sequence of IgG1-CD134-IBI101 (antibody) (VH): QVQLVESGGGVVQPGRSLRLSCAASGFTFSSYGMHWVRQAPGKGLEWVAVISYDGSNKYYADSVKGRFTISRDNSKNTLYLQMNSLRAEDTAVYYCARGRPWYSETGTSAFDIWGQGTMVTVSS
Sequence of IgG1-CD134-IBI101 (antibody) (VL): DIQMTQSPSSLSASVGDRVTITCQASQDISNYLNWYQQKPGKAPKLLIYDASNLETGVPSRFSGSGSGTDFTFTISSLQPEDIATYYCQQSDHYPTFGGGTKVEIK

Substance	association response [1]	association response [2]	association response [3]	association response [4]	association response [5]	association response [6]	association response [7]	association response [8]	association response [9]	association response [10]	association response [11]	association response [12]	association response [13]	association response [14]	association response [15]	EC50 (read off the curve) [16]	association response [17]
IgG1-CD134-INCAGN1949 (antibody)	1.39 nm	0.55 nm	0.73 nm	0.02 nm	0.11 nm	-0.02 nm	0.25 nm	-0.01 nm	0.01 nm	0.01 nm	0.01 nm	-0.03 nm	0 nm	0.01 nm	0 nm	0.09 µg/mL	1.74 nm
IgG1-CD134-IBI101 (antibody)	0.74 nm	0.02 nm	0.82 nm	0.07 nm	0.15 nm	-0.03 nm	0.24 nm	-0.02 nm	0.01 nm	0.01 nm	0.31 nm	-0.02 nm	0 nm	0.26 nm	0.02 nm	0.07 µg/mL	1.23 nm
